Among the data in patent US20210188940A1 (BIOAGE LABS, published 2021) are Kd values, retold here.

What all share (assay): ELISA, ligand coated on plate, RAGE-Fc titrated, anti-IgG Fc-HRP detection; apparent Kd
For orientation: In an ELISA, binding on a coated surface is turned into a signal by an enzyme label.

For one assay, the target named is T1, S100A9 (UniProt P06702 1-114, limits assumed).
T1 sequence (looked up): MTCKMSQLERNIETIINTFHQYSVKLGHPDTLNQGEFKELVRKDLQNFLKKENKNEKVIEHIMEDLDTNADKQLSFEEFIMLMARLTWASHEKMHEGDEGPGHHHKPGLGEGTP
The method, then: (§1) Functional ELISA assays were performed to assess the ligand binding characteristics of RAGE-Fc fusion proteins. Apparent binding affinities of RAGE-Fc fusion proteins to the RAGE ligands CML-HSA, HMGB1, S100A9 and S100A12 were measured for the following fusion proteins: Construct #1 (SEQ ID NO: 5), Construct #9 (SEQ ID NO: 53), Construct #10 (SEQ ID NO: 12), Construct #12 (SEQ ID NO: 15), and Construct #16 (SEQ ID NO: 16). Previous experiments were carried out to determine fundamental functionality of an ELISA, optimal coating concentrations and volumes, a dynamic range for the RAGE-Fc constructs, as well as optimized antibody dilutions and TMB development times.
(§2) RAGE ligands CML-HSA, HMGB1, S100A9 and S100A12 were separately coated onto a coated plate (MaxiSorp™) at a concentration of 50 nanomolar (nM), 100 microliters (μL) per well. RAGE ligand CML-HSA was separately coated onto a coated plate (MaxiSorp™) at a concentration of 100 nanograms (ng), 100 μL per well. The plates were then incubated overnight at 4° C. to allow the protein to bind to the plate coating. Following the coating step, the plates were washed once with 150 μL of wash solution (2.67 mM potassium chloride, […], 136.9 mM sodium chloride, 8.10 mM sodium phosphate dibasic, 0.05% Tween-20). […] After the blocking step, two washes were performed with the wash solution. The RAGE-Fc fusion protein was then incubated on the wells in log10 dilution with each separate ligand for 120 minutes at 37° C. while shaking. After the RAGE-Fc binding step, three washes were performed with the wash solution. Binding of the RAGE-Fc fusion to […], HMGB1, S100A9, and S100A12 was detected with a horseradish peroxidase (HRP) conjugated antibody with antigen specificity to IgG Fc (Abcam, Cat. No. ab99759). 100 μL of antibody diluted 1:5000 in DBPS was added to the assay wells, followed by 60 minutes of incubation at 37° C. while shaking. The wells were then washed four times with the wash solution. 100 μL of TMB (ThermoFisher Scientific, Cat. No. 34029) was then added to each well.

The next assay has as its target T2, S100A12 (UniProt P80511 1-92, limits assumed).
T2 sequence (looked up): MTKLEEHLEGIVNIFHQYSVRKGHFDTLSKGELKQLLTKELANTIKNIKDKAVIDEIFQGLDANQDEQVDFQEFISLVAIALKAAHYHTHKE
On the procedure:
as §1, §2

Assay [1] concerns the target T3, CML-HSA (carboxymethylated human serum albumin) (human, UniProt P02768 25-609, carboxymethylated (CML); modified sites not stated).
T3 construct: An advanced glycation end-product form of HSA, coated on the ELISA plate
The method, then: as §1, §2

The target in another assay is T4, HMGB1 (amphoterin) (UniProt P09429 1-215, limits assumed).
T4 sequence (looked up): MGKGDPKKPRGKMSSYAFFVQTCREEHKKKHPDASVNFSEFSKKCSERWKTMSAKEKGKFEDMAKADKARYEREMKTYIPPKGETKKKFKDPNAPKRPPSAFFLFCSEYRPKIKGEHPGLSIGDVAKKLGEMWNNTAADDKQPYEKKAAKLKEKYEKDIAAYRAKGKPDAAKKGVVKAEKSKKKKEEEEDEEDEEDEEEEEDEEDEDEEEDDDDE
On the procedure: as §1, §2

T3 sequence (P02768 25-609 limits assumed): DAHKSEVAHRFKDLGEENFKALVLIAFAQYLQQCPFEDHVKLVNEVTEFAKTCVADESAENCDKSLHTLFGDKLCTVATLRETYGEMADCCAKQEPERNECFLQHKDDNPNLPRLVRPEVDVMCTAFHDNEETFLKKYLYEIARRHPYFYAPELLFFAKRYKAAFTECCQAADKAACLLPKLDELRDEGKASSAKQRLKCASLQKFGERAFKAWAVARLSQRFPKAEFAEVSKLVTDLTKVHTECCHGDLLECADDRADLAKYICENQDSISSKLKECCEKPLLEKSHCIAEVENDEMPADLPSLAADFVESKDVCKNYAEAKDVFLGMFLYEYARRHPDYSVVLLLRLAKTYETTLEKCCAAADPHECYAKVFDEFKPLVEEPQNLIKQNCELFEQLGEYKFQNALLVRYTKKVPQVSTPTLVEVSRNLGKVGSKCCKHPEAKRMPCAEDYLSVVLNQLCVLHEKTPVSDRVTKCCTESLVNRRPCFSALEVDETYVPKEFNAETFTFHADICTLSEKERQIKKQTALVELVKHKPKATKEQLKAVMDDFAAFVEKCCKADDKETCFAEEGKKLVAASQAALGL

B1: Construct #12: RAGE V-C1-C2-V1stem(M/A)-IgG2 lower hinge-(IgG4CH2-CH3) (Fc fusion)
chain: AQNITARIGEPLVLKCKGAPKKPPQRLEWKLNTGRTEAWKVLSPQGGGPWDSVARVLPNGSLFLPAVGIQDEGIFRCQAMNRNGKETKSNYRVRVYQIPGKPEIVDSASELTAGVPNKVGTCVSEGSYPAGTLSWHLDGKPLVPNEKGVSVKEQTRRHPETGLFTLQSELMVTPARGGDPRPTFSCSFSPGLPRHRALRTAPIQPRVWEPVPLEEVQLVVEPEGGAVAPGGTVTLTCEVPAQPSPQIHWMKDGVPLPLPPSPVLILPEIGPQDQGTYSCVATHSSHGPQESRAVSISIIEPGEEGPTAGEGFDKVREAEDSPQHAVECPPCAPPVAGGPSVFLFPPKPKDTLMISRTPEVTCVVVDVSQEDPEVQFNWYVDGVEVHNAKTKPREEQFNSTYRVVSVLTVLHQDWLNGKEYKCKVSNKGLPSSIEKTISKAKGQPREPQVYTLPPSQEEMTKNQVSLTCLVKGFYPSDIAVEWESNGQPENNYKTTPPVLDSDGSFFLYSRLTVDKSRWQEGNVFSCSVMHEALHNHYTQKSLSLSLGK
notes: also called esRAGE-Fc fusion
Turning to B1, the Kd with S100A9 turned out to be 25 nM; with S100A12, 44 nM; in assay [1] it was 39 nM; with HMGB1 (amphoterin) it was 7 nM.

B2: Construct #16: RAGE V-C1-C2-V1stem(M/A)-IgG2 lower hinge-(IgG4CH2-CH3)-YTE (Fc fusion)
chain: AQNITARIGEPLVLKCKGAPKKPPQRLEWKLNTGRTEAWKVLSPQGGGPWDSVARVLPNGSLFLPAVGIQDEGIFRCQAMNRNGKETKSNYRVRVYQIPGKPEIVDSASELTAGVPNKVGTCVSEGSYPAGTLSWHLDGKPLVPNEKGVSVKEQTRRHPETGLFTLQSELMVTPARGGDPRPTFSCSFSPGLPRHRALRTAPIQPRVWEPVPLEEVQLVVEPEGGAVAPGGTVTLTCEVPAQPSPQIHWMKDGVPLPLPPSPVLILPEIGPQDQGTYSCVATHSSHGPQESRAVSISIIEPGEEGPTAGEGFDKVREAEDSPQHAVECPPCAPPVAGGPSVFLFPPKPKDTLYITREPEVTCVVVDVSQEDPEVQFNWYVDGVEVHNAKTKPREEQFNSTYRVVSVLTVLHQDWLNGKEYKCKVSNKGLPSSIEKTISKAKGQPREPQVYTLPPSQEEMTKNQVSLTCLVKGFYPSDIAVEWESNGQPENNYKTTPPVLDSDGSFFLYSRLTVDKSRWQEGNVFSCSVMHEALHNHYTQKSLSLSLGK
notes: also called #12 + YTE; esRAGE-Fc fusion
As to B2, the Kd with S100A9 was determined as 27 nM; in the assay with S100A12, 36 nM; in assay [1], 35 nM; with HMGB1 (amphoterin), 7 nM.
